The results in this text go back to patent US20230047413A1 (Janssen / Centocor, published 2023).

By koff is commonly meant a measure of how fast the partners let go of each other. Higher therefore signals a short-lived complex. A word on the kon: it is a measure of how fast the partners come together. In general, EC50 (read off the curve) refers to the concentration at which the effect is half-maximal. A lower EC50 (read off the curve) goes with a more potent agent. A word on the EC50: it is the concentration giving half of the maximal effect. Low values mean an effect from little substance, high ones a need for much substance.

Substitutions are numbered along the chain they refer to.

Assay [1] has as its target T1, Peptide-2 (human, phosphothreonine 212, phosphothreonine 217 (tau 2N4R numbering); short chain biotin (SCBiot) and dPEG4 at the N-terminus; amide at the C-terminus).
T1 construct: also called pT212/pT217-tau peptide (Peptide-2)
Nature of the assay: SPR ProteOn, mAb captured, peptide as analyte. The procedure: (§1) A subset of HFA-PT3 monoclonal antibody variants, selected based on biophysical characterization and ELISA binding to PHF, were analyzed by Surface Plasmon Resonance (SPR) with a ProteOn XPR36 for binding to the following phosphopeptides: pT212/pT217-tau peptide (Peptide-2, SEQ ID NO: 48) and pT212-tau peptide (Peptide-8, SEQ ID NO: 54). All experiments were performed at 25° C. using PBST, pH 7.4, (Bio-Rad Cat#176-2720) as both running buffer and sample dilution buffer.
(§2) Monoclonal antibody/Peptide binding. […] Anti-human IgG was amine-coupled to the chip surface using EDC/NHS, then washed with ethanolamine. Antibodies were diluted to 2 μg/mL in PBST and injected on the surface for 5 min at 30 μL/min to achieve a maximum density of 900-1000 RU. Peptides were injected as analytes at 60 μL/min for 3 min, followed by 5 min dissociation. Peptide-2 was diluted in PBST to generate a three-fold concentration series (0-30 nM) and measured in duplicate. Single measurements of monoclonal antibody binding to Peptide-8 were recorded over the concentration range 0-100 nM.
(§3) Data were double referenced by subtraction of the interspot response, and the curves generated by the buffer only injection. The chip surface was regenerated with 0.85% phosphoric acid, followed by PBST injection before the next antibody titration injection. Data processing and analysis were performed using instrument software. The data were fit using a simple Langmuir 1:1 binding model.

In assay [2] the target is T2, Peptide-8 (human, phosphothreonine 212 (tau 2N4R numbering); SCBiot and dPEG4 at the N-terminus; amide at the C-terminus).
T2 construct: also called pT212-tau peptide (Peptide-8)
T2 sequence (peptide, as listed by the source): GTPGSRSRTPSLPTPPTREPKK
Nature of the assay: SPR ProteOn, mAb captured by anti-human Fc, peptide as analyte. As for the experimental part: as §1, §2, §3

The target in assay [3] is T3, PHF-tau (paired helical filament tau isolated from Alzheimer's disease brain) (human, UniProt P10636-8 2-441, limits assumed, hyper-phosphorylated, aggregated; sites not listed for the preparation).
T3 construct: also called enriched PHF-tau; ePHF-tau
T3 sequence (P10636 other isoform, or with tags, fused parts or gaps limits assumed): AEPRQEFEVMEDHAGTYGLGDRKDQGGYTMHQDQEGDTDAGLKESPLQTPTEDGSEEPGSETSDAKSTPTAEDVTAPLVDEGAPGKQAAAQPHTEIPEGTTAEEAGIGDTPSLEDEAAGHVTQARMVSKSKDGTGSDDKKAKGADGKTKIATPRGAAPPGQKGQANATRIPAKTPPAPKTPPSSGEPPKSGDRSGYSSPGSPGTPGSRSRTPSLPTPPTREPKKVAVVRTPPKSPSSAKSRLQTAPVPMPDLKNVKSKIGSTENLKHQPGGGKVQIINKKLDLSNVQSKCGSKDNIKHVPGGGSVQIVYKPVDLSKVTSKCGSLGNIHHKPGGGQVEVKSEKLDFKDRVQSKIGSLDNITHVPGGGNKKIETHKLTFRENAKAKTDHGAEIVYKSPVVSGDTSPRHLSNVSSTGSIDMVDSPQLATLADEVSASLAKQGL
Nature of the assay: SPR ProteOn, PHF-tau capture-coupled via HT7, bivalent model. The procedure: (§4) A subset of HFA-PT3 monoclonal antibodies was tested for binding to PHF-tau isolated from Alzheimer's disease brain. All interactions were studied at 25° C. using PBS pH 7.4, supplemented with 3 mM EDTA, and 0.005% Tween 20 as running or system buffer. HT7 (Pierce, catalog #MN1000), a mouse anti-tau antibody, was used as a positive control.
(§5) The interaction of anti-tau monoclonal antibodies with PHF-tau was analyzed by ProteOn using a biosensor surface prepared by capture-coupling PHF-tau using HT7 as the capture reagent. PHF-tau was prepared by 2-times centrifugation at 5000×g at 5° C. for 10 min; the supernatant from the second centrifugation was then diluted 1/40 in running buffer. To prepare the chip, HT7 was covalently immobilized to the surface of a GLC (ProteOn) sensor chip using the manufacturer's instructions for amine-coupling chemistry (˜5000 response units (RU)). The coupling buffer was 10 mM sodium acetate, pH 4.5. After HT7 immobilization, PHF-tau was injected and captured (˜300 RU) by HT7. After capture, PHF-tau was covalently immobilized to the sensor chip by activation of the chip using the manufacturer's instructions for amine-coupling chemistry. Remaining reactive sites were blocked by the injection of ethanolamine. After preparation and stabilization of the PHF-tau-modified surface and reference surface (containing no antigen), the anti-tau antibodies were diluted in the running buffer and injected in solution (0.12-75 nM in 5-fold dilutions). The association was monitored for 3 minutes (120 μL injected at 40 μL/min). The dissociation was monitored for 15 minutes. Regeneration of the sensor surface was performed using 10 mM Gly pH 2.0. The data for monoclonal antibodies were fit using a bivalent binding model where the apparent affinity (KD) was reported as the ratio of koff/kₒₙ. A Langmuir 1:1 binding model was used for kinetics analysis of Fabs.

For assay [4], the target named is T3, PHF-tau (paired helical filament tau …). The description is as above. As for the experimental part: Affinity matured monoclonal antibodies were tested for binding to PHF-tau isolated from Alzheimer's disease brain.
A GLC sensor chip was covalently immobilized with a mouse anti-tau antibody, HT7 (ThermoFisher, catalog# MN1000) using the vendor recommended protocol for amine-coupling chemistry (˜5000 response units, RU). The coupling buffer was 10 mM, pH 4.5 sodium acetate. PHF-tau was prepared by 2-times centrifugation at 5000×g in 5° C. for 10 min. […] After capture-coupling, the surface was activated and deactivated to generate a homogenous PHF-tau surface for antibody binding studies. The anti-tau antibodies and their Fabs (prepared in running buffer, 0.024-75 nM at 5-fold dilutions) were injected at 50 μL/min over the PHF-tau surface to measure binding. The association and dissociation profiles were monitored for 4 minutes and 2 hours, respectively. After dissociation, the sensor chip was regenerated using multiple injections of 10 mM Glycine pH 2.0 and the running buffer. A reference surface (without any PHF-tau) was used to monitor non-specific binding of the injected mAbs or Fabs. HT7 antibody was used as a positive control. The binding sensorgrams for mAbs were fit using a bivalent binding model where the apparent affinity or avidity-driven binding (KD) was reported as the ratio of off-rate and on-rate (koff/kₒₙ). A 1:1 Langmuir binding model was used for kinetics analysis of Fabs.
This is another data set of the same source.

For assay [5], the target named is T1, Peptide-2. Nature of the assay: SPR ProteOn, mAb captured, peptide as analyte; range of n=2; upper end of n=2 range. The procedure: as §1, §2, §3
The target of assay [6] is T4, tau phospho-peptide of the direct ELISA of Example 11.
T4 construct: also called pT217 peptide; pT212/pT217 peptide
Put plainly: direct ELISA on plate-coated tau phospho-peptide (10 ng/mL), detection with HRPO-labelled anti-Fab antibody. As for the experimental part:
(§6) Binding to tau phospho-peptide was analysed by ELISA where peptide (10 ng/mL) was directly coated to the plate overnight. […] After incubation with antibodies, plates were washed and 50 μL per well of HRPO labelled anti-Fab antibody (Jackson Immunoresearch laboratories) (diluted 1:10000 in blocking buffer). After another washing step detection was performed with “One step” TMB (Thermo Scientific) according to the manufacturers' instructions. Plates were analysed in EnVision® 2102 Multilabel Reader (Perkin Elmer, Waltham, Mass., USA). Binding curves were generated using GraphPad Prism7.0 software.

The target in assay [7] is T1, Peptide-2. Put plainly: SPR ProteOn, mAb captured, peptide as analyte; range of n=2. As for the experimental part: as §1, §2, §3
Assay [8] has as its target T4, tau phospho-peptide of the direct ELISA …. Nature of the assay: direct ELISA, peptide coated. The procedure:
as §6

Assay [9] deals with T3, PHF-tau (paired helical filament tau …). Nature of the assay: SPR ProteOn, PHF-tau on chip.
In assay [10] the target is T1, Peptide-2. Nature of the assay: SPR ProteOn, peptide captured, Fab as analyte; range of n=2; upper end of n=2 range. The procedure:
as §1
(§7) Fab/peptide binding. Biotinylated peptide was captured on a neutravidin-coated NLC biosensor chip pre-conditioned with PBST, and Fab was flowed over the surface to measure kinetic parameters. Approximately 5-10 RU of peptide was captured on the chip surface by diluting peptide to 10 ng/mL in PBST and injecting over the flow channels at 30 μL/min for 100 s. Serial dilutions of PT3 Fab (1.1 nM to 90 nM) were injected at 60 μL/min for 3 minutes (association phase), followed by 300 s of buffer only (dissociation phase).
as §3

Assay [11] has as its target T3, PHF-tau (paired helical filament tau …). Put plainly: SPR ProteOn, PHF-tau capture-coupled via HT7, 1:1 model. As for the experimental part: as §4, §5
The target of assay [12] is T1, Peptide-2. Put plainly: SPR ProteOn, peptide captured, Fab as analyte; range of n=2. As for the experimental part:
as §1, §7, §3

The target of assay [13] is T1, Peptide-2. Put plainly: SPR ProteOn, peptide captured, Fab as analyte. The procedure:
as §1, §7, §3

The target of assay [14] is T2, Peptide-8. Put plainly: SPR ProteOn, mAb captured by anti-human Fc, peptide as analyte; poor data fit. The procedure: as §1, §2, §3

B1: B296 (antibody, human IgG1, kappa, V domains shown)
VH: QVQLVESGGGVVQPGRSLRLSCAASGFTFSSYAMSWVRQAPGKGLEWVASISKGGNTYYADSVKGRFTISRDNSKNTLYLQMNSLRAEDTAVYYCARGWGDYGWFAYWGQVTLVTVSS
VL: DIQMTQSPSSLSASVGDRVTITCKASQDINRYLNWFQQKPGKAPKSLIYRANRLLDGVPSRFSGSGSGTDFTLTISSLQPEDFATYYCLQYDEFPLTFGQGTKLEIKR
notes: Humanized PT3, human IgG1/kappa; also called VH92/VL77; HFA-PT3
In the case of B1, the Kd is 0.19 nM in [1]; 26.8 nM in assay [2]; 0.027 nM in [3]; 0.0062 nM in assay [4]; 0.125 to 0.255 nM in [7]. Further, the off-rate constant (koff) in [1] was determined as 0.000826 s⁻¹; in assay [2] it was 0.023 s⁻¹; in [3], 2.93e-05 s⁻¹; in assay [4] it was 1.17e-05 s⁻¹; in assay [5], 0.000863 s⁻¹; in assay [7], 0.000788 s⁻¹. In addition, the kon in [1] is 5e+06 M⁻¹ s⁻¹; in [2] it was 856000 M⁻¹ s⁻¹; in assay [3], 1.07e+06 M⁻¹ s⁻¹; in assay [4] it was 1.89e+06 M⁻¹ s⁻¹; in assay [5], 6.9e+06 M⁻¹ s⁻¹; in assay [7] it was 3.1e+06 M⁻¹ s⁻¹. Further, in assay [6], the “EC50 (read off the curve)” value was about 0.3 nM. Moreover, the EC50 in assay [8] was determined as 0.433 nM.

B2: B326 (Fab of B252) (Fab, V domains shown)
VH: B1 VH with V11L, Q13K, R16G, V37I, A49S, S74A, T77S
VL: DIVMTQTPLSSPVTLGQPASISCKASQDINRYLNWLQQRPGQPPRLLIYRANRLLDGVPDRFSGSGAGTDFTLKISRVEAEDVGVYYCLQYDEFPLTFGQGTKLEIK
notes: also called B252 Fab
Take B2: the “fold weaker KD than the mouse PT3 parent Fab B187” value in assay [9] was 3.3 fold. Also, the koff stood at 0.000353 s⁻¹ in assay [10], 0.00023 s⁻¹ in assay [11], 0.000304 s⁻¹ in assay [12] and 0.000329 s⁻¹ in assay [13]. The association rate constant (kon) in assay [10] is 912000 M⁻¹ s⁻¹; in assay [11] it was 1.02e+06 M⁻¹ s⁻¹; in [12] it was 507000 M⁻¹ s⁻¹; in assay [13], 710000 M⁻¹ s⁻¹. Moreover, the Kd in [11] was 0.224 nM; in assay [12] it was 0.387 to 0.599 nM; in [13], 0.493 nM.

B3: B280 (antibody, human IgG1, V domains shown)
VH: B1 VH with Q1E, V5L, V11L, R16G, A49S, R97K
VL: B2 VL
notes: Humanized (HFA) PT3 variant, human IgG1/kappa; also called VH91/VL80
Regarding B3, the Kd in assay [1] was 0.769 nM; in assay [3], 0.055 nM; in [14], 34.7 nM; in assay [7], 0.418 to 1.12 nM. In addition, the koff in assay [1] came to 0.00274 s⁻¹; in assay [3], 5.63e-05 s⁻¹; in assay [14], 0.00757 s⁻¹; in assay [5], 0.00301 s⁻¹; in assay [7] it was 0.00246 s⁻¹. The on-rate (kon) in [1] turned out to be 4.71e+06 M⁻¹ s⁻¹; in assay [3] it was 1.02e+06 M⁻¹ s⁻¹; in assay [14], 218000 M⁻¹ s⁻¹; in [5], 7.2e+06 M⁻¹ s⁻¹; in assay [7] it was 2.21e+06 M⁻¹ s⁻¹.

B4: B809 (antibody, human IgG1, kappa, V domains shown)
VH: B1 VH with S30T, S52T, D101I
VL: B1 VL
notes: also called PT1B809
Regarding B4, the “fold improvement in on-rate compared to the parent antibody (B296)” value in assay [9] was determined as 3 fold. In assay [4], this molecule displayed a Kd of 0.002 nM, a koff of 1.27e-05 s⁻¹ and a kon of 6.45e+06 M⁻¹ s⁻¹. Further, in assay [6], the “EC50 (read off the curve)” value was about 0.06 nM. For the same molecule, a half-maximal effect in assay [8] (EC50) was put at 0.0917 nM.

B5: B333 (antibody, human IgG1, kappa, V domains shown)
VH: B1 VH
VL: B1 VL with Y32W
notes: also called PT1B333
For B5, in assay [4], the Kd turned out to be 0.0025 nM, the koff was found to be 6.8e-06 s⁻¹ and the on-rate (kon) came to 2.68e+06 M⁻¹ s⁻¹. Besides, the 50% effective concentration (EC50 (read off the curve)) in assay [6] was about 0.09 nM. In assay [8], a half-maximal response (EC50) required 0.164 nM.
